# Experimental data from US20040121947A1, “Compounds which inhibit beta-secretase activity and methods of use thereof” (Oklahoma Medical Research Foundation, priority 2000, published 2004).
# *1 amine or outer side, *2 acyl side, *3 side chain or, on linkers, in order; H or OH if unused. Where a SMILES comes first, the peptide text is derived from it. [ ]: non-standard residue; d: D form. The star is where a group is joined. LeuΨ(S-CHOHCH2)Ala = CC(C)C[C@H](N[*:1])[C@@H](O)C[C@@H](C)C(=O)[*:2]; 5FAM = O=C1OC2(c3ccc(O)cc3Oc3cc(O)ccc32)c2ccc(C(=O)*)cc21; Ahx = NCCCCCC(=O)O
# Assays:
# HEK293 cells = assay: Penetration of fluorescently labelled inhibitors into cultured cells (flow cytometry); format: cell-based, human; conditions: incubation 10 to 30 minutes
# Procedure: Fluorescently labelled inhibitors or fluorescein (Fs) as a control were incubated with suspended cells for time intervals ranging from 10 to 30 minutes. Cells were fixed with paraformaldehyde and permeabilized in 0.2% Tween-20 in PBS for 6 minutes and incubated with anti-fluorescein-Alexa™ 488 antibody (Molecular Probes, Eugene, Oreg.) in order to enhance detection of intracellular inhibitor present from penetration. Flow cytometry (FACSCalibur™) and confocal fluorescent microscopy (Leica TCS NT™) were performed at the Flow and Image Cytometry Lab, OUHSC.
# memapsin 2 = molecular target: T1, memapsin 2 (Homo sapiens, UniProt P56817); assay: Inhibition of memapsin 2 proteolytic activity, fluorogenic substrate FS-2; format: biochemical; conditions: memapsin 2, carrier peptide-inhibitor conjugates; read-out: Ki apparent
# T1 construct: pET-11 vector-derived residues 1-15 of promemapsin 2-T1 (N, cleaved yes); made in house; host or cells: E. coli
# Outline: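 Spontaneously activated memapsin 2 (80 nM final) equilibrated with inhibitor (about 10 nM–10 μM) in 0.1 M NaOAc pH 4.0 with 10% DMSO for 20 min at 37 °C, with fluorogenic substrate FS-2. Ki converted from Ki apparent using substrate concentration and Km.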
# [1] = Transport of conjugated inhibitors to mouse blood, spleen and brain after i.p. injection
# Procedure: Whole blood cells (with EDTA as anti-coagulant in the syringe or in the capillary tube) were isolated from anesthetized animals from the orbital artery or by heart puncture and diluted 1:10 in PBS. Prior to the harvest of other tissue samples, animals were anesthetized and perfused with 150 ml of neutral-buffered 10% formalin. Spleens were harvested intact. Brains were harvested and cerebral hemispheres separated, one for sectioning by cryostat, the other for single cell isolation for flow cytometry.
# Sections of the brain hemispheres were obtained by soaking in OCT/PBS at 4° C. for overnight, recovered and frozen in Histo Prep Media.
# To collect single cell suspensions, spleens and brain hemispheres were homogenized through a 30 μm screen and directly analyzed by flow cytometric analysis.
# [2] = Martin et al. 1999; cited from earlier work
# T1 sequence (P56817 41-454 limits assumed): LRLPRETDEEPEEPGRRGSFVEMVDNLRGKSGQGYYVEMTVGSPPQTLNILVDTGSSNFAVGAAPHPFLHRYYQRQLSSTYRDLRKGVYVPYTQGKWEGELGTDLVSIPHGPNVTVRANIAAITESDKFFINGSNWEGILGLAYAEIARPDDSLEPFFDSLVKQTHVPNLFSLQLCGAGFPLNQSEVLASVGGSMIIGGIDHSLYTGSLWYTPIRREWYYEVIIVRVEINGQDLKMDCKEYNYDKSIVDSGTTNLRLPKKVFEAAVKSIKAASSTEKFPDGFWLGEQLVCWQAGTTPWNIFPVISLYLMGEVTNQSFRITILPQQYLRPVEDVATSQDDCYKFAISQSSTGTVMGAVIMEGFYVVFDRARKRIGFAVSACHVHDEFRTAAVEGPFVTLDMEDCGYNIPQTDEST
SMILES,Penetration of cultured cells (intracellular fluorescence) (HEK293 cells),Ki (memapsin 2) [nM],"Uptake into brain tissue ([1]; 8 hours after i.p. injection, flow cytometry or confocal microscopy)",Splenocytes with fluorescence peak shift ([1]; splenectomy 2 hours after i.p. injection) [%],"Blood cells with strong fluorescence signal ([1]; whole blood 20 minutes after i.p. injection, 0.3 nmol)","Splenocytes with fluorescence peak shift ([1]; mouse, in vivo, ip) [%]",Crossing of the blood-brain barrier [2]
CC(C)C[C@H](NC(=O)[C@H](CC(N)=O)NC(=O)[C@@H](NC(=O)[C@H](CCC(=O)O)NC(=O)CCCCCNC(=O)c1ccc2c(c1)C(=O)OC21c2ccc(O)cc2Oc2cc(O)ccc21)C(C)C)[C@@H](O)C[C@@H](C)C(=O)N[C@@H](C)C(=O)N[C@@H](CCC(=O)O)C(=O)N[C@@H](Cc1ccccc1)C(=O)NCC(=O)N[C@@H](Cc1ccc(O)cc1)C(=O)NCC(=O)N[C@@H](CCCNC(=N)N)C(=O)N[C@@H](CCCCN)C(=O)N[C@@H](CCCCN)C(=O)N[C@@H](CCCNC(=N)N)C(=O)N[C@@H](CCCNC(=N)N)C(=O)N[C@@H](CCC(N)=O)C(=O)N[C@@H](CCCNC(=N)N)C(=O)N[C@@H](CCCNC(=N)N)C(=O)N[C@@H](CCCNC(=N)N)C(=O)O [CPI-1] ({5FAM-Ahx}-EVN[LeuΨ(S-CHOHCH2)Ala]AEFGYGRKKRRQRRR-OH),readily penetrated cultured cells within minutes,39,penetration of the fluorescent conjugate into all brain cells,~100,approximately 100%,,
CC(C)C[C@H](NC(=O)[C@H](CCC(=O)O)NC(=O)CCCCCNC(=O)c1ccc2c(c1)C(=O)OC21c2ccc(O)cc2Oc2cc(O)ccc21)C(=O)N[C@@H](CC(=O)O)C(=O)N[C@@H](CC(C)C)[C@@H](O)C[C@@H](C)C(=O)N[C@H](C(=O)N[C@@H](CCC(=O)O)C(=O)N[C@@H](Cc1ccccc1)C(=O)NCC(=O)NCC(=O)N[C@H](CCCNC(=N)N)C(=O)N[C@H](CCCNC(=N)N)C(=O)N[C@H](CCCNC(=N)N)C(=O)N[C@H](CCCNC(=N)N)C(=O)N[C@H](CCCNC(=N)N)C(=O)N[C@H](CCCNC(=N)N)C(=O)N[C@H](CCCNC(=N)N)C(=O)N[C@H](CCCNC(=N)N)C(=O)N[C@H](CCCNC(=N)N)C(=O)O)C(C)C [CPI-2] ({5FAM-Ahx}-ELD[LeuΨ(S-CHOHCH2)Ala]VEFGG[dR][dR][dR][dR][dR][dR][dR][dR][dR]-OH),readily penetrated cultured cells within minutes,58,,,,~100,
CC(C)(C)NC(=O)[C@@H]1CN(Cc2cccnc2)CCN1C[C@@H](O)C[C@@H](Cc1ccccc1)C(=O)N[C@H]1c2ccccc2C[C@H]1O [indinavir],,,,,,,can cross the blood-brain barrier
